Data set [1] is described as follows: in vivo clearance (pharmacokinetic) studies in sham-operated and nephrectomised rats. Conditions: intravenous 0.005 mg/kg; for clearance mechanism: sham-operated and nephrectomised rats, inferred from similar kinetics. As for the experimental part:
The clearance mechanism of (i) the Di-PEG G-CSF product mixture (43 kDa total MW) comprising di-PEG 12kDa G-CSF and […] isoforms according to example A6 and of (ii) the single isoform, Di'-PEG 20kDa G-CSF conjugate (59 kDa total MW) according to example B, was tested in vivo in comparison to commercially available mono-pegylated G-CSF (Neulasta®)
The in vivo studies were open randomized, parallel- grouped clearance studies of Neulasta® with either the Di-PEG G-CSF product mixture or the single di'-PEG 20kDa G-CSF conjugate isoform in sham-operated (control group) and nephrectomised rats. The studies were carried out by intravenous injection of 0.005 mg/kg of the conjugate to male rats. Four animals per group per time point were subjected to bleeding. The remaining G-CSF plasma concentration was determined in the serum samples and relevant pharmacokinetic data such as the plasma elimination half-life were calculated.

The test system of data set [2] is male rats. Put plainly: in vivo single dose biocomparability study of di-PEG G-CSF product with Neupogen and Neulasta (WBC and neutrophil counts). Conditions: single subcutaneous injection 0.1 mg/kg. As for the experimental part:
The di-PEG G-CSF product comprising a mixture of di- and di' PEG G-CSF conjugate isoforms according to the invention was tested in vivo, to show the improved activity versus unmodified G-CSF (Neupogen®) and to compare its biological activity with commercially available mono-pegylated G-CSF (Neulasta®).
The in vivo study was an open randomized, parallel- grouped single dose biocomparability study of Neupogen® and Neulasta® with the di-PEG G-CSF product. It was carried out by subcutaneously injecting 0.1 mg/kg to male rats. Six animals per group per time point were subjected to bleeding. Serum samples were subjected to a complete blood count on the same day that the samples were collected. The average white blood cell counts and neutrophil counts were calculated.

The subject of data set [3] is male rats. The experiment in a line: in vivo single dose biocomparability study of Di'-PEG 20kDa G-CSF isoform with Neupogen and Neulasta (WBC and neutrophil counts). To be noted: single subcutaneous injection 0.1 mg/kg; for average white blood cell counts (WBC) and WBC response: Figure 14; for average neutrophil counts and neutrophil response: Figure 15. As for the experimental part:
For testing the biological activity of the Di'-PEG 20kDa G-CSF conjugate isoform in vivo, the single isoform was highly purified by preparative cation exchange chromatography. The defined product contained at least 95% di'-PEG G-CSF conjugate isoform as described in example A 6, paragraph d)ii). The in vivo study was an open randomized, parallel- grouped single dose biocomparability study of Neupogen® and Neulasta® with the single di'-PEG G-CSF conjugate isoform. It was carried out by subcutaneously injecting 0.1 mg/kg to male rats. Six animals per group per time point were subjected to bleeding. Serum samples were subjected to a complete blood count on the same day that the samples were collected. The average white blood cell counts and neutrophil counts were calculated.

[4] abbreviates: NE - nephrectomised rats, PK study Neulasta vs Di-PEG 12kDa G-CSF mixture.
Where [5] appears, read: SH - sham operated rats, PK study Neulasta vs Di-PEG 12kDa G-CSF mixture.
[6] abbreviates: NE - nephrectomised rats, PK study Neulasta vs Di'-PEG 20kDa G-CSF isoform.
[7] abbreviates: SH - sham operated rats, PK study Neulasta vs Di'-PEG 20kDa G-CSF isoform.
The mark [8] stands for this setting: compared to unmodified G-CSF (Neupogen®).

The results in this text go back to patent EP1834963A1, “Di-polymer protein conjugates and processes for their preparation” (priority 2006, dated 2007).

B1: Di-PEG 12kDa G-CSF mixture (conjugate, UniProt P09919 31-207, looked up)
Granulocyte …: TPLGPASSLPQSFLLKCLEQVRKIQGDGAALQEKLVSECATYKLCHPEELVLLGHSLGIPWAPLSSCPSQALQLAGCLSQLHSGLFLYQGLLQALEGISPELGPTLDTLQLDVADFATTIWQQMEELGMAPALQPTQGAMPAFASAFQRRAGGVLVASHLQSFLEVSYRVLRHLAQP
modifications: two 12 kDa PEG chains
Consider B1, for which the Elimination half-life in data set [1] (setting [4]) turned out to be 3.4 h; in data set [1] (setting [5]), 2.9 h. In addition, the clearance mechanism result in data set [1] is on record as “predominantly cleared by Neutrophil Receptor-mediated clearance”. In addition, the “average white blood cell counts (WBC)” value with male rats [2] (compared to Neulasta®, Figure 8) was “at least biosimilar, perhaps potentially better, because of slightly higher maximum WBC and neutrophil counts”. Further, the average neutrophil counts entry with male rats [2] (compared to Neulasta®, Figure 9) is “at least biosimilar, perhaps potentially better, because of slightly higher maximum WBC and neutrophil counts”. The “average white blood cell counts (WBC) and WBC response” value with male rats [2] (compared to unmodified G-CSF (Neupogen®), Figure 8) was “higher WBC and neutrophil counts and longer sustained WBC and neutrophil response”. In addition, in the data set with male rats [2] (compared to unmodified G-CSF (Neupogen®), Figure 9), the “average neutrophil counts and neutrophil response” value was “higher WBC and neutrophil counts and longer sustained WBC and neutrophil response”.

B2: Di'-PEG 20kDa G-CSF isoform (conjugate, UniProt P09919 31-207, looked up)
Granulocyte …: TPLGPASSLPQSFLLKCLEQVRKIQGDGAALQEKLVSECATYKLCHPEELVLLGHSLGIPWAPLSSCPSQALQLAGCLSQLHSGLFLYQGLLQALEGISPELGPTLDTLQLDVADFATTIWQQMEELGMAPALQPTQGAMPAFASAFQRRAGGVLVASHLQSFLEVSYRVLRHLAQP
modifications: two 20 kDa PEG chains
Consider B2, for which the Elimination half-life in data set [1] (setting [6]) turned out to be 3.7 h; in data set [1] (setting [7]), 3.3 h. Moreover, the clearance mechanism entry in data set [1] is “predominantly cleared by Neutrophil Receptor-mediated clearance”. Also, the “average white blood cell counts (WBC) and WBC response” value in the data set on male rats [3] (compared to Neulasta®) was “bioimproved because of higher maximum WBC and neutrophil counts and its sustained WBC and neutrophil response”; in the data set with male rats [3] (setting [8]) it was “i) higher WBC and neutrophil counts and ii) showed a sustained WBC and neutrophil response”. The “average neutrophil counts and neutrophil response” value was “bioimproved because of higher maximum WBC and neutrophil counts and its sustained WBC and neutrophil response” in the data set on male rats [3] (compared to Neulasta®); “i) higher WBC and neutrophil counts and ii) showed a sustained WBC and neutrophil response” with male rats [3] (setting [8]).

B3: Neulasta (conjugate, UniProt P09919 31-207, looked up)
Granulocyte …: TPLGPASSLPQSFLLKCLEQVRKIQGDGAALQEKLVSECATYKLCHPEELVLLGHSLGIPWAPLSSCPSQALQLAGCLSQLHSGLFLYQGLLQALEGISPELGPTLDTLQLDVADFATTIWQQMEELGMAPALQPTQGAMPAFASAFQRRAGGVLVASHLQSFLEVSYRVLRHLAQP
modifications: pegfilgrastim; N-terminal Met, 20 kDa PEG
Consider B3, for which the Elimination half-life in data set [1] (setting [6]) is recorded as 2.1 h; in data set [1] (setting [4]) it was 2.5 h; in data set [1] (setting [7]), 1.9 h; in data set [1] (setting [5]) it was 1.9 h. Besides, in data set [1], the clearance mechanism entry was “predominantly cleared by Neutrophil Receptor-mediated clearance”.
